# Molecular target: HLA-A*01:01 (Homo sapiens, UniProt P04439, A114D/A174V/A182V/D101N/D185E/E176A/E190D/L180R/Q94H/R68K/S129P/T187R/V100A/V91M/W191G)
# Assay: MHC binding assay: UV-ligand exchange, ELISA of stabilized MHC complexes (peptide exchange yield)
# Details: binding to HLA-A*01:01, UV-ligand exchange
# Excerpt: Candidate peptides for T cell based therapies according to the present invention were further tested for their MHC binding capacity (affinity). The individual peptide-MHC complexes were produced by UV-ligand exchange, where a UV-sensitive peptide is cleaved upon UV-irradiation and exchanged with the peptide of interest as analyzed. Only peptide candidates that can effectively bind and stabilize the peptide-receptive MHC molecules prevent dissociation of the MHC complexes. To determine the yield of the exchange reaction, an ELISA was performed based on the detection of the light chain (β2m) of stabilized MHC complexes. The assay was performed as generally described in Rodenko et al. (Rodenko et al., 2006)
# 96 well MAXISorp plates (NUNC) were coated over night with 2 ug/ml streptavidin in PBS at room temperature, washed 4× and blocked for 1 h at 37° C. in 2% BSA containing blocking buffer. Refolded HLA-A*02:01/MLA-001 monomers served as standards, covering the range of 15-500 ng/ml. Peptide-MHC monomers of the UV-exchange reaction were diluted 100-fold in blocking buffer. Samples were incubated for 1 h at 37° C., washed four times, incubated with 2 ug/ml HRP conjugated anti-β2m for 1 h at 37° C., washed again and detected with TMB solution that is stopped with […]. Absorption was measured at 450 nm.
row,Substance,Peptide exchange
1,106 (EVVEGKEWGSFY; listed as Homo sapiens) [compound 106],+++ (>50 = +++)
2,107 (TTENSGNYY; listed as Homo sapiens) [compound 107],++++ (>75% = ++++)
3,108 (NSNLKFLEV; listed as Homo sapiens) [compound 108],++ (>20% = ++)
4,109 (ISEDKSISF; listed as Homo sapiens) [compound 109],++ (>20% = ++)
5,110 (IGDKVDAVY; listed as Homo sapiens) [compound 110],++ (>20% = ++)
6,111 (TPIPFDKILY; listed as Homo sapiens) [compound 111],++ (>20% = ++)
7,112 (KASSVSAEDGY; listed as Homo sapiens) [compound 112],++ (>20% = ++)
8,113 (ASCRSSAEY; listed as Homo sapiens) [compound 113],++++ (>75% = ++++)
9,114 (AVAAAAGASLY; listed as Homo sapiens) [compound 114],++ (>20% = ++)
10,115 (NEIDIHSIYFY; listed as Homo sapiens) [compound 115],++ (>20% = ++)
11,116 (RSDIGEFEW; listed as Homo sapiens) [compound 116],++ (>20% = ++)
12,117 (SPAKQFNIY; listed as Homo sapiens) [compound 117],+++ (>50 = +++)
13,118 (LTWAHSAKY; listed as Homo sapiens) [compound 118],+++ (>50 = +++)
14,119 (TVFDENLSRY; listed as Homo sapiens) [compound 119],++ (>20% = ++)
15,121 (SADEAHGLL; listed as Homo sapiens) [compound 121],++ (>20% = ++)
16,122 (ISEAPLTEV; listed as Homo sapiens) [compound 122],++ (>20% = ++)
17,123 (LLKAKDILY; listed as Homo sapiens) [compound 123],++ (>20% = ++)

row,Substance,Peptide exchange
1,124 (FLKVTGYDKDDY; listed as Homo sapiens) [compound 124],++ (>20% = ++)
2,125 (FQYELRELY; listed as Homo sapiens) [compound 125],++++ (>75% = ++++)
3,126 (TTDPKKFQY; listed as Homo sapiens) [compound 126],++++ (>75% = ++++)
4,127 (VPFNLITEY; listed as Homo sapiens) [compound 127],+ (>10% =+)
5,128 (YTEFVDATFTK; listed as Homo sapiens) [compound 128],++++ (>75% = ++++)
6,129 (STIDFRAGF; listed as Homo sapiens) [compound 129],++ (>20% = ++)
7,130 (YIGLKGLYF; listed as Homo sapiens) [compound 130],++ (>20% = ++)
8,131 (LEDGIEQSAY; listed as Homo sapiens) [compound 131],++ (>20% = ++)
9,132 (RTHIGYKVY; listed as Homo sapiens) [compound 132],+++ (>50 = +++)
10,133 (ITDVGPGNY; listed as Homo sapiens) [compound 133],+++ (>50 = +++)
11,134 (SAPSSSGSPLY; listed as Homo sapiens) [compound 134],++ (>20% = ++)
12,135 (TFDKQIVLL; listed as Homo sapiens) [compound 135],++ (>20% = ++)
13,136 (RRLNFSGFGY; listed as Homo sapiens) [compound 136],+++ (>50 = +++)
14,137 (EAYLERIGY; listed as Homo sapiens) [compound 137],+++ (>50 = +++)
15,138 (IPVHDSVGVTY; listed as Homo sapiens) [compound 138],+++ (>50 = +++)
16,139 (PVHDSVGVTY; listed as Homo sapiens) [compound 139],++ (>20% = ++)

# Now from value to substance:
row,Peptide exchange,Substance
1,++ (>20% = ++),140 (SQHIFTVSY; listed as Homo sapiens) [compound 140]
2,++ (>20% = ++),141 (DAVAPGREY; listed as Homo sapiens) [compound 141]
3,+++ (>50 = +++),142 (IEKFAVLY; listed as Homo sapiens) [compound 142]
4,++ (>20% = ++),143 (HVSGQMLYF; listed as Homo sapiens) [compound 143]
5,++ (>20% = ++),144 (RTIEGDFLW; listed as Homo sapiens) [compound 144]
6,+++ (>50 = +++),145 (LSDAVHVEF; listed as Homo sapiens) [compound 145]
7,++ (>20% = ++),146 (LCATVCGTEQY; listed as Homo sapiens) [compound 146]
8,+++ (>50 = +++),147 (AQVQDTGRY; listed as Homo sapiens) [compound 147]
9,+ (>10% =+),148 (GTKQWVHARY; listed as Homo sapiens) [compound 148]
10,++ (>20% = ++),149 (PIMSSSQALY; listed as Homo sapiens) [compound 149]
11,++ (>20% = ++),150 (FTTLSDLQTNMA; listed as Homo sapiens) [compound 150]
12,++ (>20% = ++),151 (YEVDTKLLSL; listed as Homo sapiens) [compound 151]
13,++ (>20% = ++),152 (YLEDRPLSQ; listed as Homo sapiens) [compound 152]
14,++ (>20% = ++),153 (HSIEVFTHY; listed as Homo sapiens) [compound 153]
15,+++ (>50 = +++),154 (SIEVFTHY; listed as Homo sapiens) [compound 154]
16,+++ (>50 = +++),155 (HTMEVTVY; listed as Homo sapiens) [compound 155]
17,++ (>20% = ++),156 (STALSILLL; listed as Homo sapiens) [compound 156]
18,++++ (>75% = ++++),157 (GLIEVVTGY; listed as Homo sapiens) [compound 157]
19,+++ (>50 = +++),158 (EVTDRNMLAF; listed as Homo sapiens) [compound 158]
20,++ (>20% = ++),159 (RQAPGPARDY; listed as Homo sapiens) [compound 159]
21,++ (>20% = ++),160 (EVLGEEMYAY; listed as Homo sapiens) [compound 160]

row,Peptide exchange,Substance
1,++ (>20% = ++),161 (EAAPDIMHY; listed as Homo sapiens) [compound 161]
2,++++ (>75% = ++++),162 (IADNPQLSFY; listed as Homo sapiens) [compound 162]
3,++ (>20% = ++),163 (KIRAEVLSHY; listed as Homo sapiens) [compound 163]
4,++ (>20% = ++),164 (KLAGTVFQY; listed as Homo sapiens) [compound 164]
5,++ (>20% = ++),165 (VSVYNSYPY; listed as Homo sapiens) [compound 165]
6,++++ (>75% = ++++),166 (YHRICELLSDY; listed as Homo sapiens) [compound 166]
7,+++ (>50 = +++),167 (RAVQPGETY; listed as Homo sapiens) [compound 167]
8,+++ (>50 = +++),168 (VQPGETYTY; listed as Homo sapiens) [compound 168]
9,++ (>20% = ++),169 (TVDNANILL; listed as Homo sapiens) [compound 169]
10,+++ (>50 = +++),170 (VQIAKGMNY; listed as Homo sapiens) [compound 170]
11,++ (>20% = ++),171 (ITDFGLAKL; listed as Homo sapiens) [compound 171]
12,+++ (>50 = +++),172 (FSEPFHLIV; listed as Homo sapiens) [compound 172]
13,+++ (>50 = +++),173 (QSTTGVSHY; listed as Homo sapiens) [compound 173]
14,+++ (>50 = +++),174 (TSEVEGLAFVSY; listed as Homo sapiens) [compound 174]
15,++ (>20% = ++),175 (GLEYEAPKLY; listed as Homo sapiens) [compound 175]
16,+++ (>50 = +++),176 (HTDLESPSAVY; listed as Homo sapiens) [compound 176]
17,++ (>20% = ++),177 (LVDGKWQEF; listed as Homo sapiens) [compound 177]
18,++ (>20% = ++),178 (TQRTSFQFY; listed as Homo sapiens) [compound 178]
19,+ (>10% =+),179 (SSTDFTFASW; listed as Homo sapiens) [compound 179]
20,++ (>20% = ++),180 (AQISDTGRY; listed as Homo sapiens) [compound 180]
21,++ (>20% = ++),181 (SVTDLIGGKW; listed as Homo sapiens) [compound 181]

# — patent publication US12195506B2, “Immunotherapy with A*01 restricted peptides and combination of peptides against cancers and related methods” (Immatics Biotechnologies GmbH, priority 2018, dated 2025)
